# Results from patent US20210253718A1 (MODMAB THERAPEUTICS, published 2021).
# T1: FZD3 cysteine-rich domain (CRD), MYC-tagged and GPI-anchored on CHO cells (human, UniProt Q9NPG1 24-150, GPI anchor)
# T1 construct: domain: cysteine-rich domain (CRD); also called FZD3 CRD; CHO-myc-FZDGPI; not shown: MYC tag and GPI anchor signal
# T1 sequence (looked up): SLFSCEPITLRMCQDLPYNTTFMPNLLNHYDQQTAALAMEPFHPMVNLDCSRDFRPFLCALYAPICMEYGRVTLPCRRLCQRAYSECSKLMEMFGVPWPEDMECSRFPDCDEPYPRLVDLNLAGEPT
# T2: FZD4 cysteine-rich domain (CRD), MYC-tagged and GPI-anchored on CHO cells (human, UniProt Q9ULV1 42-167, GPI anchor)
# T2 construct: also called FZD4 CRD; CHO-myc-FZDGPI; not shown: MYC tag and GPI anchor signal
# T2 sequence: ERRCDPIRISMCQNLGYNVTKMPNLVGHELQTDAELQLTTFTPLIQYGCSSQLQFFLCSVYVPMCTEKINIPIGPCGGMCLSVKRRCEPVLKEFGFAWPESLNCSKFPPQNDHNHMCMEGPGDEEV
# T3: FZD5 cysteine-rich domain (CRD), MYC-tagged and GPI-anchored on CHO cells (human, UniProt Q13467 29-156, GPI anchor)
# T3 construct: also called FZD5 CRD; CHO-myc-FZDGPI; not shown: MYC tag and GPI anchor signal
# T3 sequence: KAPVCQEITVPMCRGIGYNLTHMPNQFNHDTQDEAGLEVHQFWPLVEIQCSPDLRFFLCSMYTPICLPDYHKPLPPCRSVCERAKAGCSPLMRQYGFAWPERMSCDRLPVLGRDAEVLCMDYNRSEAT
# T4: FZD6 cysteine-rich domain (CRD), MYC-tagged and GPI-anchored on CHO cells (human, UniProt O60353 20-146, GPI anchor)
# T4 construct: also called FZD6 CRD; CHO-myc-FZDGPI; not shown: MYC tag and GPI anchor signal
# T4 sequence: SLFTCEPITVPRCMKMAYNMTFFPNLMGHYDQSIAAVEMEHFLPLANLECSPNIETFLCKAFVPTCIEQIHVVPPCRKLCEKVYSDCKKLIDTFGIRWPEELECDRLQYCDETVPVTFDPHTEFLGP
# T5: FZD9 cysteine-rich domain (CRD), MYC-tagged and GPI-anchored on CHO cells (human, UniProt O00144 35-161, GPI anchor)
# T5 construct: also called FZD9 CRD; CHO-myc-FZDGPI; not shown: MYC tag and GPI anchor signal
# T5 sequence: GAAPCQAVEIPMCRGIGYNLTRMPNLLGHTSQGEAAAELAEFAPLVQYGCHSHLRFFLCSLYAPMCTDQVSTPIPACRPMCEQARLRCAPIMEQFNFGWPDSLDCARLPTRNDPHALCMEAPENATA
# T6: FZD10 cysteine-rich domain (CRD), MYC-tagged and GPI-anchored on CHO cells (human, UniProt Q9ULW2 30-156, GPI anchor)
# T6 construct: also called FZD10 CRD; CHO-myc-FZDGPI; not shown: MYC tag and GPI anchor signal
# T6 sequence: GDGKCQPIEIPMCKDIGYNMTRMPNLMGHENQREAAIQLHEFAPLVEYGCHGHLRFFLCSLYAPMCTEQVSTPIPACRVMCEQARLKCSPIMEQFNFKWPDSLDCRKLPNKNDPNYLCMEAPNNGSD
# T7: FZD8 cysteine-rich domain (CRD), MYC-tagged and GPI-anchored on CHO cells (human, UniProt Q498S8 31-155 (rat entry), GPI anchor)
# T7 construct: also called FZD8 CRD; CHO-myc-FZDGPI; not shown: MYC tag and GPI anchor signal
# T7 sequence: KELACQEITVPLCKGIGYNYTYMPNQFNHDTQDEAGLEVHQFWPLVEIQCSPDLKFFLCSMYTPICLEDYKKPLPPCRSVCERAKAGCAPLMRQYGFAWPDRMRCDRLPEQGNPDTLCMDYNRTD
# Legend:
# [1] = target: T8, FZD1 cysteine-rich domain (CRD), MYC-tagged and GPI-anchored on CHO cells (human); assay: flow cytometry, CHO-CRD cells;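 also: flow cytometry of Fab binding to CHO cells overexpressing a Frizzled CRD, with binding defined as median fluorescence over twice that of CHO cells lacking any Frizzled CRD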
# Procedure: (§1) Binding was measured via flow cytometry analysis of CHO cells overexpressing CRD of FZD1, FZD2, FZD3, FZD4, FZD5, FZD6, FZD7, FZD8, FZD9 or FZD10. Median fluorescence values are shown.
# [2] = target: T9, FZD2 cysteine-rich domain (CRD), MYC-tagged and GPI-anchored on CHO cells (human, UniProt Q14332 35-161); assay: flow cytometry, CHO-CRD cells;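 also: flow cytometry of Fab binding to CHO cells overexpressing a Frizzled CRD, with binding defined as median fluorescence over twice that of CHO cells lacking any Frizzled CRD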
# Procedure: as §1
# [3] = target: T1, FZD3 cysteine-rich domain (CRD), …; assay: flow cytometry, CHO-CRD cells;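 also: flow cytometry of Fab binding to CHO cells overexpressing a Frizzled CRD, with binding defined as median fluorescence over twice that of CHO cells lacking any Frizzled CRD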
# Procedure: as §1
# [4] = target: T2, FZD4 cysteine-rich domain (CRD), …; assay: flow cytometry, CHO-CRD cells;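 also: flow cytometry of Fab binding to CHO cells overexpressing a Frizzled CRD, with binding defined as median fluorescence over twice that of CHO cells lacking any Frizzled CRD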
# Procedure: as §1
# [5] = target: T3, FZD5 cysteine-rich domain (CRD), …; assay: flow cytometry, CHO-CRD cells
# Procedure: as §1
# [6] = target: T4, FZD6 cysteine-rich domain (CRD), …; assay: flow cytometry, CHO-CRD cells
# Procedure: as §1
# [7] = target: T10, FZD7 cysteine-rich domain (CRD), MYC-tagged and GPI-anchored on CHO cells (human, UniProt O75084 45-169); assay: flow cytometry, CHO-CRD cells
# Procedure: as §1
# [8] = target: T5, FZD9 cysteine-rich domain (CRD), …; assay: flow cytometry, CHO-CRD cells
# Procedure: as §1
# [9] = target: T6, FZD10 cysteine-rich domain (CRD), …; assay: flow cytometry, CHO-CRD cells
# Procedure: as §1
# [10] = target: T8, FZD1 cysteine-rich domain (CRD), …; assay: immunofluorescence, CHO-CRD cells
# [11] = target: T9, FZD2 cysteine-rich domain (CRD), …; assay: immunofluorescence, CHO-CRD cells
# [12] = target: T1, FZD3 cysteine-rich domain (CRD), …; assay: immunofluorescence, CHO-CRD cells
# [13] = target: T2, FZD4 cysteine-rich domain (CRD), …; assay: immunofluorescence, CHO-CRD cells
# [14] = target: T4, FZD6 cysteine-rich domain (CRD), …; assay: immunofluorescence, CHO-CRD cells
# [15] = target: T5, FZD9 cysteine-rich domain (CRD), …; assay: immunofluorescence, CHO-CRD cells
# [16] = target: T6, FZD10 cysteine-rich domain (CRD), …; assay: immunofluorescence, CHO-CRD cells
# [17] = target: T7, FZD8 cysteine-rich domain (CRD), …; assay: flow cytometry, CHO-CRD cells
# Procedure: as §1
# [18] = target: T10, FZD7 cysteine-rich domain (CRD), …; assay: immunofluorescence, CHO-CRD cells
median fluorescence [1],median fluorescence [2],median fluorescence [3],median fluorescence [4],median fluorescence [5],median fluorescence [6],median fluorescence [7],median fluorescence [8],median fluorescence [9],binding result [10],binding result [11],binding result [12],binding result [13],binding result [14],binding result [15],binding result [16],median fluorescence [17],binding result [18],Binder
4.61,5.38,3.43,4.1,31.3,2.89,4.57,2.57,2.71,no binding,no binding,no binding,no binding,no binding,no binding,no binding,,,"Fab-2909 (Fab, V domains shown, Fab; also called Fv-2909) VH: EVQLVESGGGLVQPGGSLRLSCAASGFNISSSYMHWVRQAPGKGLEWVASISSSSGYTSYADSVKGRFTISADTSKNTAYLQMNSLRAEDTAVYYCARTVRGSKKPYFSGWAMDYWGQGTLVTVSS VL: DIQMTQSPSSLSASVGDRVTITCRASQSVSSAVAWYQQKPGKAPKLLIYSASSLYSGVPSRFSGSRSGTDFTLTISSLQPEDFATYYCQQSWSYHYLITFGQGTKVEIK"
61.5,,3.28,4.78,34.3,2.86,3.52,2.71,2.67,,,no binding,no binding,no binding,no binding,no binding,29.4,no binding,"Fab-2934 (Fab, V domains shown, Fab; also called Fv-2934) VH: EVQLVESGGGLVQPGGSLRLSCAASGFNISYSYMHWVRQAPGKGLEWVASIYSSSGSTSYADSVKGRFTISADTSKNTAYLQMNSLRAEDTAVYYCARGAIDYWGQGTLVTVSS VL: DIQMTQSPSSLSASVGDRVTITCRASQSVSSAVAWYQQKPGKAPKLLIYSASSLYSGVPSRFSGSRSGTDFTLTISSLQPEDFATYYCQQWYHYGLITFGQGTKVEIK"
5.23,5.09,4.03,,30.2,3.55,2.92,5.05,19.8,no binding,no binding,no binding,,no binding,no binding,,10.1,,"Fab-2906 (Fab, V domains shown, Fab; also called Fv-2906) VH: EVQLVESGGGLVQPGGSLRLSCAASGFNFSSSSIHWVRQAPGKGLEWVAYISSSYGYTYYADSVKGRFTISADTSKNTAYLQMNSLRAEDTAVYYCARTVRGSKKPYFSGWAMDYWGQGTLVTVSS VL: DIQMTQSPSSLSASVGDRVTITCRASQSVSSAVAWYQQKPGKAPKLLIYSASSLYSGVPSRFSGSRSGTDFTLTISSLQPEDFATYYCQQWSWGFLITFGQGTKVEIK"
4.07,6.79,4.49,,29.2,3.37,3,3.52,3.34,no binding,no binding,no binding,,no binding,no binding,no binding,15.8,no binding,"Fab-2935 (Fab, V domains shown, Fab; also called Fv-2935) VH: EVQLVESGGGLVQPGGSLRLSCAASGFNIYYYYIHWVRQAPGKGLEWVASIYPSSGSTSYADSVKGRFTISADTSKNTAYLQMNSLRAEDTAVYYCARAAFDYWGQGTLVTVSS VL: DIQMTQSPSSLSASVGDRVTITCRASQSVSSAVAWYQQKPGKAPKLLIYSASSLYSGVPSRFSGSRSGTDFTLTISSLQPEDFATYYCQQWYGGYALITFGQGTKVEIK"
6.1,8.98,6.44,,36.9,4,16,3.96,4.1,no binding,no binding,no binding,,no binding,no binding,no binding,13.9,,"Fab-2902 (Fab, V domains shown, Fab; also called Fv-2902) VH: EVQLVESGGGLVQPGGSLRLSCAASGFNISYYYIHWVRQAPGKGLEWVASISSSSSSTSYADSVKGRFTISADTSKNTAYLQMNSLRAEDTAVYYCARGALDYWGQGTLVTVSS VL: DIQMTQSPSSLSASVGDRVTITCRASQSVSSAVAWYQQKPGKAPKLLIYSASSLYSGVPSRFSGSRSGTDFTLTISSLQPEDFATYYCQQWYAFGALITFGQGTKVEIK"
6.04,7.91,6.67,,36.9,4.33,6.04,4.83,4.22,no binding,no binding,no binding,,no binding,no binding,no binding,11.9,no binding,"Fab-2923 (Fab, V domains shown, Fab; also called Fv-2923) VH: EVQLVESGGGLVQPGGSLRLSCAASGFNLYYYYMHWVRQAPGKGLEWVASIYSSSGSTSYADSVKGRFTISADTSKNTAYLQMNSLRAEDTAVYYCARGAMDYWGQGTLVTVSS VL: DIQMTQSPSSLSASVGDRVTITCRASQSVSSAVAWYQQKPGKAPKLLIYSASSLYSGVPSRFSGSRSGTDFTLTISSLQPEDFATYYCQQWYGYSALITFGQGTKVEIK"
